Measured values published in patent US20220202905A1, “COMPOSITION FOR PREVENTING OR TREATING NEUROTROPHIC KERATITIS WHICH CONTAINS PACAP PEPTIDE OR STABILIZED PACAP PEPTIDE” (SENJU PHARMACEUTICAL CO., LTD., priority 2019, published 2022).
Each block holds one molecule with its values, some of them ahead of it. Square brackets hold non-standard residues; d marks the D form. Peptide text beside a SMILES is read from it. * marks the point of attachment. Ala(1H-tetrazol-5-yl) = N[C@@H](Cc1nnn[nH]1)C(=O)O; Nle = CCCC[C@H](N)C(=O)O; Ms = CS(=O)(=O)*

Columns and labels:
[1] = Peptide stability test, phosphate buffer (pH 7.0), 40° C. storage, HPLC remaining rate; format: physicochemical; settings: for remaining rate after correction for water, 40° C., 1 month preservation / remaining rate after correction for water, 40° C., 2 months preservation: 100 μM in phosphate buffer pH 7.0; for stability in aqueous solution (in words), 40° C. storage: phosphate buffer pH 7.0, 1 or 2 months
Description: Peptides 1 and 3 to 5 synthesized in Example 2 were weighed and dissolved in phosphate buffer (pH 7.0) to prepare 1.0 mM peptide solutions. The 1.0 mM peptide solutions were then diluted with phosphate buffer to 100 μM. After filtering with Chromatdisk (product of Merck Millipore, Millex-GV, 0.22 μm), each filtrate was dispensed into an LC vial (Waters Deactivated […] prepared peptide solutions were incubated for one month or 2 months in a 40° C. thermostatic bath to obtain stored samples. A simultaneously prepared sample among the peptide solutions that was not stored was used as a standard sample (initial sample). The standard sample and the stored samples were stored at -30° C. until sample analysis. Using the total weight of the aqueous peptide solution and storage vessel as the specimen weight, measurements were recorded as the specimen weights before storage and the specimen weights after storage under different storage conditions. The empty weight of the storage vessel was also measured, and the moisture permeability was determined by the following formula. After stirring the standard sample and the stored samples with a vortex mixer, each peptide solution was transferred to an HPLC vial (Deactivated Qsert vial by Waters Co.). Reverse-phase HPLC (HPLC system: Prominence by Shimadzu Corp.) was conducted under the conditions shown in Table 3 below for analysis of the peptide solutions, and chromatograms were obtained. Guard column: XSelect CSH C18 by Waters Co., 5 μm, 4.6×20 mm Guard Cartridge Detection wavelength: 220 nm Mobile phase A: 0.1% formic acid aqueous solution Mobile phase B: 0.1% acetonitrile formate solution Measuring time: 30 minutes Measuring sample injection rate: 50 μL Flow rate: 1.0 mL/min Sample cooler: 4° C. Column temperature: 40° C. Mobile phase delivery: The mixing ratio of mobile phase A and mobile phase B was varied as shown in Table 3 for linear concentration gradient control. The peak area value for the peptide in the chromatogram was calculated, and the remaining rate (remaining rate before correction for water) was calculated using formula (2). The remaining rate after correction for water was also calculated from the remaining rate before correction for water using formula (3), taking into account the moisture permeability of the vessel. Peptides 10 and 11 synthesized in Example 2 were weighed and dissolved in phosphate buffer (pH 7.0) to prepare 1.0 mM peptide solutions. Each solution was filtered with a Chromatdisk (product of Merck Millipore. Millex-GV, 0.22 μm). Each filtrate was diluted to 100 μM with phosphate buffer (pH 7.0) and dispensed into a tube (Protein LoBind Tube by Eppendorf Co.). The prepared peptide solutions were incubated for one month or 2 months in a 40° C. thermostatic bath to obtain stored samples. A simultaneously prepared sample among the peptide solutions that was not stored was used as a standard sample (initial sample). The standard sample and the stored samples were stored at -30° C. until sample analysis. The remaining rate after correction for water for each peptide among the stored samples was measured in the same manner as Example 4, and the results are shown in Table 8.

VPAC1 receptor = biological target: T1, VPAC1 receptor (UniProt P32241 31-457, limits assumed); test: cell-based or functional assay
T1 sequence (looked up): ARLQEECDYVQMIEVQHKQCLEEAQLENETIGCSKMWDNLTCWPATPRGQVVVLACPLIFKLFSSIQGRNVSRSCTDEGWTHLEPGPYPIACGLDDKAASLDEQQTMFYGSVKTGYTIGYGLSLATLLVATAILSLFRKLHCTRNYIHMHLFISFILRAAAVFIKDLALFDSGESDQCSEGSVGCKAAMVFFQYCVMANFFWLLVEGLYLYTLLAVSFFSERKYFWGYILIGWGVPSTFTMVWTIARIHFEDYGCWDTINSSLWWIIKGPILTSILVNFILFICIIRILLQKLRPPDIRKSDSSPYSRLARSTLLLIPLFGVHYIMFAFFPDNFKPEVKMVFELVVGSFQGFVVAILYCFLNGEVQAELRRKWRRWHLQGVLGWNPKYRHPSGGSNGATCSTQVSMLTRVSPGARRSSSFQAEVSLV

PAC1 receptor = biological target: T2, PAC1 receptor (UniProt P41586 21-468, limits assumed); test: cell-based or functional assay
T2 sequence (looked up): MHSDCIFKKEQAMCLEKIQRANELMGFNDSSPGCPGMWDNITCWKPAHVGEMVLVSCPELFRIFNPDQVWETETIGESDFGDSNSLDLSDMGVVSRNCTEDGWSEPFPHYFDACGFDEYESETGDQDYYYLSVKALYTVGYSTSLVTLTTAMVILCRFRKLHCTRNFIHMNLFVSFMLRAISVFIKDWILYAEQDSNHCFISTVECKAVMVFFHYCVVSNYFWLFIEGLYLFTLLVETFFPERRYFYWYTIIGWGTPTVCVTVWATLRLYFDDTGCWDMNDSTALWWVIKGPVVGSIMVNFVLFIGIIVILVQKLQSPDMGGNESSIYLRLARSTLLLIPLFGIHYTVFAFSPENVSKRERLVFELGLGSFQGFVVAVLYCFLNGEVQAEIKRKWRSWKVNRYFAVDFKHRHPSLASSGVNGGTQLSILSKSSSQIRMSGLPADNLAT

[2] = Table 8, measured as in Example 4

Molecule: CC[C@H](C)[C@H](NC(=O)CNC(=O)[C@H](Cc1nnn[nH]1)NC(=O)[C@H](CO)NC(=O)[C@@H](N)Cc1c[nH]cn1)C(=O)N[C@@H](Cc1ccccc1)C(=O)N[C@H](C(=O)N[C@@H](Cc1nnn[nH]1)C(=O)N[C@@H](CO)C(=O)N[C@@H](Cc1ccc(O)cc1)C(=O)N[C@@H](CO)C(=O)N[C@@H](CCCNC(=N)N)C(=O)N[C@@H](Cc1ccc(O)cc1)C(=O)N[C@@H](CCCNC(=N)N)C(=O)N[C@@H](CCCCN)C(=O)N[C@@H](CCC(N)=O)C(=O)N[C@@H](CCSC)C(=O)N[C@@H](C)C(=O)N[C@H](C(=O)N[C@@H](CCCCN)C(=O)N[C@@H](CCCCN)C(=O)N[C@@H](Cc1ccc(O)cc1)C(=O)N[C@@H](CC(C)C)C(=O)N[C@@H](C)C(=O)N[C@@H](C)C(=O)N[C@H](C(=O)N[C@@H](CC(C)C)C(N)=O)C(C)C)C(C)C)[C@@H](C)O [Peptide 5] (H-HS[Ala(1H-tetrazol-5-yl)]GIFT[Ala(1H-tetrazol-5-yl)]SYSRYRKQMAVKKYLAAVL-NH2)
remaining rate after correction for water, 40° C., 1 month preservation ([1]; Table 4, HPLC conditions 1): 94.7%
remaining rate after correction for water, 40° C., 2 months preservation ([1]; Table 4, HPLC conditions 1): 85.6%
stability in aqueous solution (in words), 40° C. storage [1]: further increased stability over peptide 3 and peptide 4

B1: Peptide 33 (peptide)
peptide: Ac-HA[Ala(1H-tetrazol-5-yl)]AIFT[Ala(1H-tetrazol-5-yl)]SYSRYRKQAAVKKYLAAVL-NH2
SMILES: CC[C@H](C)[C@H](NC(=O)[C@H](C)NC(=O)[C@H](Cc1nnn[nH]1)NC(=O)[C@H](C)NC(=O)[C@H](Cc1c[nH]cn1)NC(C)=O)C(=O)N[C@@H](Cc1ccccc1)C(=O)N[C@H](C(=O)N[C@@H](Cc1nnn[nH]1)C(=O)N[C@@H](CO)C(=O)N[C@@H](Cc1ccc(O)cc1)C(=O)N[C@@H](CO)C(=O)N[C@@H](CCCNC(=N)N)C(=O)N[C@@H](Cc1ccc(O)cc1)C(=O)N[C@@H](CCCNC(=N)N)C(=O)N[C@@H](CCCCN)C(=O)N[C@@H](CCC(N)=O)C(=O)N[C@@H](C)C(=O)N[C@@H](C)C(=O)N[C@H](C(=O)N[C@@H](CCCCN)C(=O)N[C@@H](CCCCN)C(=O)N[C@@H](Cc1ccc(O)cc1)C(=O)N[C@@H](CC(C)C)C(=O)N[C@@H](C)C(=O)N[C@@H](C)C(=O)N[C@H](C(=O)N[C@@H](CC(C)C)C(N)=O)C(C)C)C(C)C)[C@@H](C)O
EC50 (VPAC1R), cAMP inducing effect (VPAC1 receptor): 0.143 nM
EC50 (PAC1R), cAMP inducing effect (PAC1 receptor): 0.089 nM

B2: Peptide 29 (peptide)
peptide: HSXGIFTXAYSRYRKQLAVKKYLAAVL
modifications: N-terminal mesyl (Ms-); Tz (aspartic acid with carboxyl group replaced by tetrazole) at positions 3 and 8; C-terminal amide (NH2)
EC50 (VPAC1R), cAMP inducing effect (VPAC1 receptor): 0.09 nM
EC50 (PAC1R), cAMP inducing effect (PAC1 receptor): 0.025 nM

The next lines start with the values.

remaining rate after correction for water, 40° C., 1 month preservation [1, 2]: 94.2%
remaining rate after correction for water, 40° C., 2 months preservation [1, 2]: 88.8%
stability in aqueous solution (in words), 40° C. storage [1]: stabilized to the same degree
Molecule: CCCC[C@H](NC(=O)[C@H](CCC(N)=O)NC(=O)[C@H](CCCCN)NC(=O)[C@H](CCCNC(=N)N)NC(=O)[C@H](Cc1ccc(O)cc1)NC(=O)[C@H](CCCNC(=N)N)NC(=O)[C@H](CO)NC(=O)[C@H](Cc1ccc(O)cc1)NC(=O)[C@H](CO)NC(=O)[C@H](Cc1nnn[nH]1)NC(=O)[C@@H](NC(=O)[C@H](Cc1ccccc1)NC(=O)[C@@H](NC(=O)CNC(=O)[C@H](Cc1nnn[nH]1)NC(=O)[C@H](CO)NC(=O)[C@H](Cc1c[nH]cn1)NS(C)(=O)=O)[C@@H](C)CC)[C@@H](C)O)C(=O)N[C@@H](C)C(=O)N[C@H](C(=O)N[C@@H](CCCCN)C(=O)N[C@@H](CCCCN)C(=O)N[C@@H](Cc1ccc(O)cc1)C(=O)N[C@@H](CC(C)C)C(=O)N[C@@H](C)C(=O)N[C@@H](C)C(=O)N[C@H](C(=O)N[C@@H](CC(C)C)C(N)=O)C(C)C)C(C)C [Peptide 11] (Ms-HS[Ala(1H-tetrazol-5-yl)]GIFT[Ala(1H-tetrazol-5-yl)]SYSRYRKQ[Nle]AVKKYLAAVL-NH2)

EC50 (VPAC1R), cAMP inducing effect (VPAC1 receptor): 0.057 nM
EC50 (PAC1R), cAMP inducing effect (PAC1 receptor): 0.032 nM
B3: Peptide 30 (peptide)
peptide: HSXAIFTXSYSRYRKQLAVKKYLAAVL
modifications: N-terminal mesyl (Ms-); Tz (aspartic acid with carboxyl group replaced by tetrazole) at positions 3 and 8; C-terminal amide (NH2)

EC50 (VPAC1R), cAMP inducing effect (VPAC1 receptor): 0.035 nM
EC50 (PAC1R), cAMP inducing effect (PAC1 receptor): 0.034 nM
B4: Peptide 31 (peptide)
peptide: Ms-HS[Ala(1H-tetrazol-5-yl)]AIFT[Ala(1H-tetrazol-5-yl)]SYSRYRKQAAVKKYLAAVL-NH2
SMILES: CC[C@H](C)[C@H](NC(=O)[C@H](C)NC(=O)[C@H](Cc1nnn[nH]1)NC(=O)[C@H](CO)NC(=O)[C@H](Cc1c[nH]cn1)NS(C)(=O)=O)C(=O)N[C@@H](Cc1ccccc1)C(=O)N[C@H](C(=O)N[C@@H](Cc1nnn[nH]1)C(=O)N[C@@H](CO)C(=O)N[C@@H](Cc1ccc(O)cc1)C(=O)N[C@@H](CO)C(=O)N[C@@H](CCCNC(=N)N)C(=O)N[C@@H](Cc1ccc(O)cc1)C(=O)N[C@@H](CCCNC(=N)N)C(=O)N[C@@H](CCCCN)C(=O)N[C@@H](CCC(N)=O)C(=O)N[C@@H](C)C(=O)N[C@@H](C)C(=O)N[C@H](C(=O)N[C@@H](CCCCN)C(=O)N[C@@H](CCCCN)C(=O)N[C@@H](Cc1ccc(O)cc1)C(=O)N[C@@H](CC(C)C)C(=O)N[C@@H](C)C(=O)N[C@@H](C)C(=O)N[C@H](C(=O)N[C@@H](CC(C)C)C(N)=O)C(C)C)C(C)C)[C@@H](C)O

EC50 (VPAC1R), cAMP inducing effect (VPAC1 receptor): 0.076 nM
EC50 (PAC1R), cAMP inducing effect (PAC1 receptor): 0.148 nM
B5: Peptide 32 (peptide)
peptide: Ac-HS[Ala(1H-tetrazol-5-yl)]AIFT[Ala(1H-tetrazol-5-yl)]SYSRYRKQAAVKKYLAAVL-NH2
SMILES: CC[C@H](C)[C@H](NC(=O)[C@H](C)NC(=O)[C@H](Cc1nnn[nH]1)NC(=O)[C@H](CO)NC(=O)[C@H](Cc1c[nH]cn1)NC(C)=O)C(=O)N[C@@H](Cc1ccccc1)C(=O)N[C@H](C(=O)N[C@@H](Cc1nnn[nH]1)C(=O)N[C@@H](CO)C(=O)N[C@@H](Cc1ccc(O)cc1)C(=O)N[C@@H](CO)C(=O)N[C@@H](CCCNC(=N)N)C(=O)N[C@@H](Cc1ccc(O)cc1)C(=O)N[C@@H](CCCNC(=N)N)C(=O)N[C@@H](CCCCN)C(=O)N[C@@H](CCC(N)=O)C(=O)N[C@@H](C)C(=O)N[C@@H](C)C(=O)N[C@H](C(=O)N[C@@H](CCCCN)C(=O)N[C@@H](CCCCN)C(=O)N[C@@H](Cc1ccc(O)cc1)C(=O)N[C@@H](CC(C)C)C(=O)N[C@@H](C)C(=O)N[C@@H](C)C(=O)N[C@H](C(=O)N[C@@H](CC(C)C)C(N)=O)C(C)C)C(C)C)[C@@H](C)O
